# Tests used:
# [1] = tested on: K4 kissing-loop RNA reporter; experiment: apparent KD of K4 kissing-loop reporter; higher = weaker reporter binding; details: Eterna round: R107;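 further: bound reporter read as fluorescence of individual clusters on recovered sequencing chips by microscopy, with normalized cluster intensities fitted with a binding model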
# Method: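 RNA-MaP round R107: designed RNA switches with theophylline, tryptophan, arginine or FMN aptamers are transcribed on-chip within common flanks. They are titrated with a labelled K4 kissing-loop RNA reporter in RNA-MaP buffer (100 mM Tris pH 7.5, 80 mM KCl, 4 mM MgCl2), without ligand or with the indicated ligand. Median apparent KD per design.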
# MS2 coat protein = experiment: apparent KD of MS2 coat protein; designed switch direction (-1 OFF switch, 1 ON switch): -1; higher = weaker reporter binding
# Method in brief: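 Designed RNA switches with common flanks were transcribed on Illumina chips by stalled E. coli RNA polymerase and titrated with SNAP-549-labelled MS2 coat protein, from 0.7 or 1.5 nM doubling to 3 µM, in Tris-HCl pH 7.5 buffer with KCl, MgCl2, BSA, DTT, tRNA and Tween-20. Steps lasted 0.8–1.5 h (lowest) to 10–20 min (highest). Titrations ran without input, with 200 uM small-molecule ligand, or with an oligonucleotide input. Normalised cluster fluorescence was curve-fitted, and apparent KD is the per-design median over clusters.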
# [2] = input ligand: theophylline 20 uM
# [3] = input ligand: tryptophan 2.4 mM
# [4] = Eterna round: R95, input ligand: microRNA oligo, concentration not stated
# [5] = input ligand: microRNA oligo, concentration not stated
# [6] = Eterna round: R95, input ligand: FMN 200 uM
# [7] = Eterna round: R95, input ligand: none
sequence,measurement,setting,value
AGAUUCGACACGGCCGCCACUUCCAGUGGCUGGUGUCAUGGUGCACGUGAGUGAUGUUUAUGUGGAAGGACCGGGUGUUGAGUCU [KL-XTryp-B2 #analogue],apparent KD of K4 kissing-loop reporter,[1]; input ligand: FMN 200 uM,652 nM
same,apparent KD of K4 kissing-loop reporter,[1]; input ligand: arginine 13.2 mM,472 nM
same,apparent KD of K4 kissing-loop reporter,[1]; input ligand: none,670 nM
same,apparent KD of K4 kissing-loop reporter,[1]; [2],504 nM
same,apparent KD of K4 kissing-loop reporter,[1]; [3],1250 nM
UGUGUUUACCUGACUCAGUGAUGUUGAGAAGGAGCGUGCUAAAGCACAGGUAGGUCGCUCAACCUAAAUUCAGGUGAGCACUAAA,apparent KD of K4 kissing-loop reporter,[1]; input ligand: FMN 200 uM,350 nM
same,apparent KD of K4 kissing-loop reporter,[1]; input ligand: arginine 13.2 mM,258 nM
same,apparent KD of K4 kissing-loop reporter,[1]; input ligand: none,312 nM
same,apparent KD of K4 kissing-loop reporter,[1]; [2],326 nM
same,apparent KD of K4 kissing-loop reporter,[1]; [3],257 nM
GAGGUGGAGUGAUGUUCCACACUCGCUAGUAAGGAUAUGGCUGCUUCCAGAAGGUACCUAGAUUCAGUGUGCAUCAGUAACGUGC [theeternabot_exclusion_KL_FMN_A_4],apparent KD of K4 kissing-loop reporter,[1]; input ligand: FMN 200 uM,95.2 nM
same,apparent KD of K4 kissing-loop reporter,[1]; input ligand: arginine 13.2 mM,96.3 nM
same,apparent KD of K4 kissing-loop reporter,[1]; input ligand: none,106 nM
same,apparent KD of K4 kissing-loop reporter,[1]; [2],105 nM
same,apparent KD of K4 kissing-loop reporter,[1]; [3],96.3 nM
AAGUCAUAGGCAGGAUAUGCAUUGUAAUAAGGCAAUAUAUACGUAUAGAGUGAUGUUUUGUACCAGGCAGAAGGGCUACAUCAGU [FMN B Excl V10 (+5A/U)],apparent KD of K4 kissing-loop reporter,[1]; input ligand: FMN 200 uM,674 nM
same,apparent KD of K4 kissing-loop reporter,[1]; input ligand: arginine 13.2 mM,383 nM
same,apparent KD of K4 kissing-loop reporter,[1]; input ligand: none,652 nM
same,apparent KD of K4 kissing-loop reporter,[1]; [2],491 nM
same,apparent KD of K4 kissing-loop reporter,[1]; [3],416 nM
AUUUAACAUGAGGAUCACCCAUGUGAGGAUAUGUCCAUAUUCGGCAAAUCGGAUAUGGACAGAAGGCACACCGG [JR_Exclusion1_Sub008] (puzzle: Exclusion 1),apparent KD of MS2 coat protein,MS2 coat protein; [4],139 nM
"UGUCAGAUGGUAGGAUAUCCUUAUCGCGUGUCCCUUUCCUAACAUGAGGAUCACCCAUGUCGGUGGGAGAAGGGCCGUAUGGUG [salish99_ExNG02_R04_038] (Eterna round: R96, puzzle: Exclusion NG 2)",apparent KD of MS2 coat protein,MS2 coat protein; input ligand: FMN 200 uM,11.5 nM
same,apparent KD of MS2 coat protein,MS2 coat protein; [5],11.2 nM
same,apparent KD of MS2 coat protein,MS2 coat protein; input ligand: none,13.4 nM
CUCAUGUGAGGAUAUGUGAUCAACCUUCUAUAUAGAUGAUGACAGAAGGCACAUGAGGAUCACCCAUGUAGAUC [Ex4 - 3 - 19] (puzzle: Exclusion 4),apparent KD of MS2 coat protein,MS2 coat protein; [4],37.9 nM
GGAUCGUAUGUCAGGAUAUGCCACUGGAUACAGUGGUAGAAGGGACAUGAGGAUCACCCAUGUCCUACCGAUCC [Fiskers BMX 4 - 50] (puzzle: Brourd's mod of Exclusion 4),apparent KD of MS2 coat protein,MS2 coat protein; [4],12.4 nM
"AGGAUGUUAGGAUAUGCUAGAGUACUACAGAGUACUACGGAGCAGAAGGAACAUGAGGAUCACCCAUGUCACCU [Exclusion 4 R4 S1] (Eterna round: R97, puzzle: Exclusion 4)",apparent KD of MS2 coat protein,MS2 coat protein; input ligand: FMN 200 uM,19.9 nM
same,apparent KD of MS2 coat protein,MS2 coat protein; input ligand: none,14 nM
GCAUGGCGAGGAUAUACAUGAGGAUCACCCAUGUGAGAAUAAUAAGUGAGGAAGAAAAGUAGAAGGCGCUGUGG [Mat - Exclusion 3 - Mod of Salish D64] (puzzle: Exclusion 3),apparent KD of MS2 coat protein,MS2 coat protein; [6],250 nM
same,apparent KD of MS2 coat protein,MS2 coat protein; [4],70.1 nM
same,apparent KD of MS2 coat protein,MS2 coat protein; [7],97.8 nM
"UUGUUGUAUGUAGGAUAUGCGUAUUAUUAUUAUGCAGAAGGACAUGAGGAUCACCCAUGUGUAUUAUUAUUAUAUAUUAUAUAU [Title] (Eterna round: R96, puzzle: Exclusion NG 1)",apparent KD of MS2 coat protein,MS2 coat protein; input ligand: FMN 200 uM,44.3 nM
same,apparent KD of MS2 coat protein,MS2 coat protein; [5],20.8 nM
same,apparent KD of MS2 coat protein,MS2 coat protein; input ligand: none,19.7 nM
"UAUAUAUAGUAAGGAUAUGUAUAUAUUUCAUAAACAGAAGGUACUGACAUGAGGAUCACCCAUGUUUUAGUGUGGGCAUGUAGA [JMF's solution 65] (Eterna round: R96, puzzle: Exclusion NG 1)",apparent KD of MS2 coat protein,MS2 coat protein; [5],48 nM
GAGUGACAUGAGGAUCACCCAUGUGAGGAUAUCGGACGGACCAAAUUAACAACCACCGCGAGAAGGCACAUCGG [Exclusion 1 V21] (puzzle: Exclusion 1),apparent KD of MS2 coat protein,MS2 coat protein; [6],58.4 nM
same,apparent KD of MS2 coat protein,MS2 coat protein; [4],98.9 nM
same,apparent KD of MS2 coat protein,MS2 coat protein; [7],107 nM
"AGCAGACGAGGAUAUAAACGAUAUAACAUGAGGAUCACCCAUGUACGAUCGAAUGAUCGUUUAGAAGGCGUCUGCU [E5/10-A2] (Eterna round: R97, puzzle: Exclusion 5)",apparent KD of MS2 coat protein,MS2 coat protein; input ligand: FMN 200 uM,17.3 nM
same,apparent KD of MS2 coat protein,MS2 coat protein; input ligand: none,15.1 nM
